Consider one substance from patent publication US20230365956A1.

For experiment [1], the target named is SARS-CoV-2 RBD, wild type (Sino Biological) (SARS-CoV-2) (UniProt P0DTC2). In words: BLI, avidity format: biotinylated RBD on SA sensor, binder in solution.
The target is the same in experiment [2]. In words: BLI, affinity format: response at highest analyte concentration.
The target is the same in experiment [3]. Nature of the experiment: BLI, affinity format: binder on AHC sensor, RBD in solution.
Experiment [4] shares this target. Nature of the experiment: BLI, avidity format: response at highest analyte concentration.

Consider Cilgavimab (antibody), for which, in experiment [1], the Kd came out at 0.21 nM, the koff amounted to 6.53e-05 s⁻¹ and the kon worked out at 312000 M⁻¹ s⁻¹. The substance also yielded a Response in experiment [2] of 0.397 nm shift. Moreover, in experiment [3], the Kd is 3.98 nM, the koff turned out to be 0.00172 s⁻¹ and the kon was determined as 434000 M⁻¹ s⁻¹. For the same substance, the Response in experiment [4] was found to be 0.64 nm shift.
